Assay results taken from patent US20210309739A1 (CISCIO BIOASSAYS, published 2021).
Where a chain is given by its changes, count along the chain named. Where two headings read alike, the source gives them in different places.

Tests used:
[1] = target: T1, recombinant TST-Galphai1 protein bound to GTPgammaS (human, UniProt P63096 1-354, Loaded non-covalently with GTPgammaS (10 uM). The N-terminal TwinStreptag and TEV linker are not in the letters.); experiment: TR-FRET (HTRF) saturation binding; 6HIS-tagged VH-HcAb titrated on 1 nM TST-Galphai1 with 10 uM GTPgS, anti-TST-Lumi4-Tb donor and anti-6HIS-d2 acceptor; mean Kd
T1 construct: Same polypeptide as m15 and m16; here loaded with an excess of GTPgS (10 uM); Produced in Sf9 insect cells; also called Galphai1 protein loaded with GTPgS
Experimental: (§1) FIG. 12 illustrates the principle of the TR-FRET (HTRF) assay which was carried out to determine the affinity (Kd) of the various VH-HcAbs for the Galphai1 protein. A fixed concentration (1 nM) of the recombinant Galphai1 protein purified and tagged with TST (TST-Galphai1 protein) is placed in the presence of an excess of nucleotide (GDP or GTPgS) (10 μM), of a fixed concentration (0.5 nM) of anti-TST antibody labeled with the donor Lumi4®-Tb (anti-Tag Ab-Donor), of a fixed concentration (50 nM) of anti-6HIS antibody labeled with the acceptor d2 (anti-6HIS-acceptor antibody, Cisbio Bioassays #61HISDLF), and of increasing concentrations of a VH-HcAb antibody tagged with 6HIS (6HIS-Fc-sdAb). The total HTRF signal was then obtained.
(§2) The specific HTRF signal of the interaction between the VH-HcAb and the Galphai1 protein was then calculated by subtracting the nonspecific signal from the total signal. The data of the specific HTRF signal were then analyzed on GraphPad Prism7 software using a “one site specific binding” fit. The dissociation constant (Kd) of the VH-HcAb for the Galphai1 protein was then determined.

[2] = target: T2, empty G alphai1 protein (recombinant TST-Galphai1 protein, no nucleotide) (human, UniProt P63096 1-354); experiment: TR-FRET (HTRF) saturation binding; VH-d2 titrated on TST-Galphai1, empty form; mean Kd
T2 construct: Same polypeptide as m14 and m15; also called empty G protein alpha; empty form of the G protein alpha; not shown: N-terminal TwinStreptag (TST) (IBA) tag and TEV linker

[3] = target: T1, recombinant TST-Galphai1 protein bound …; experiment: TR-FRET (HTRF) saturation binding; VH-d2 titrated on 1 nM TST-Galphai1 with 10 uM GTPgS, anti-TST-Lumi4-Tb donor; mean Kd
Experimental: (§3) The TR-FRET (HTRF) test made it possible to determine the affinity (Kd) of the various antibodies for the Galphai1 protein; FIG. 2 illustrates the principle of this test. A fixed concentration (1 nM) of the recombinant Galphai1 protein purified and tagged with TST (TST-Galphai1 protein) was placed in the presence of an excess of nucleotide (GDP or GTPgS) (10 μM), of a fixed concentration (0.5 nM) of anti-TST antibody labeled with the donor Lumi4®-Tb (anti-TST antibody-Lumi4®-Tb) and of increasing concentrations of VH-type single-domain antibodies labeled with the acceptor d2 (anti-Galphai VH antibody-d2). The total HTRF signal was then obtained.
(§4) The specific HTRF signal of the interaction between the antibody and the Galphai1 protein was then calculated by subtracting the nonspecific signal from the total signal. The data of the specific HTRF signal were then analyzed on GraphPad Prism7 software using a “one site specific binding” fit. The dissociation constant (Kd) of the antibody for the Galphai1 protein was then determined. The results which were obtained with the antibodies which bind to the G protein alpha bound to GTP gamma S and with the antibodies which bind to the G protein alpha bound to GDP are shown in Tables 1 and 2 below.

[4] = target: T3, recombinant TST-Galphai1 protein bound to GDP (human, UniProt P63096 1-354, Loaded non-covalently with GDP (10 uM). The N-terminal TwinStreptag and TEV linker are not in the letters.); experiment: TR-FRET (HTRF) saturation binding; VH-d2 titrated on 1 nM TST-Galphai1 with 10 uM GDP, anti-TST-Lumi4-Tb donor; mean Kd
T3 construct: Same polypeptide as m14 and m16; here loaded with an excess of GDP (10 uM); Produced in Sf9 insect cells; also called Galphai1 protein loaded with GDP
Experimental: as §3, §4

[5] = target: T2, empty G alphai1 protein (recombinant …); experiment: TR-FRET (HTRF) saturation binding; VH-d2 titrated on TST-Galphai1, empty form; mean Kd; remark: listed apart in the source
[6] = target: T3, recombinant TST-Galphai1 protein bound …; experiment: TR-FRET (HTRF) saturation binding; 6HIS-tagged VH-HcAb titrated on 1 nM TST-Galphai1 with 10 uM GDP, anti-TST-Lumi4-Tb donor and anti-6HIS-d2 acceptor; mean Kd
Experimental: as §1, §2

T3 sequence (P63096 whole entry): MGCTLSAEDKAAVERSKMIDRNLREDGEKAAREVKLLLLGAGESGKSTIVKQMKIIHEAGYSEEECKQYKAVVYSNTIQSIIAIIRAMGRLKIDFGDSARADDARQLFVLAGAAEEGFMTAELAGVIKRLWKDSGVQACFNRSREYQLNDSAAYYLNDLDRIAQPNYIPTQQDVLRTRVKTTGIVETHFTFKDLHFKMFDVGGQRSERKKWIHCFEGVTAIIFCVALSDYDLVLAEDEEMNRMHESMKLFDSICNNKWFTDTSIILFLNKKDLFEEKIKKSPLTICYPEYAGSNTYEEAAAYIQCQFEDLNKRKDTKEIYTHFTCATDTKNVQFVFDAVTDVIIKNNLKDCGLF
T2 sequence (P63096 whole entry): as above
T1 sequence (P63096 whole entry): as above

B1: HcAb-B11 (Fc fusion)
heavy (part 1 of 2): EVQLVESGGGLVQPGGSLRLSCAASGFTFNDYWMYWVRQAPGKGLEWVSSINTGGSSTYYSDSVKGRFTTARDNAKNSLYLQLNSLRPEDTAVYYCAKEGPVGPPDYWGQGTQVTVSSAAAEQKLISEEDLNGAAHHHHHHGS
heavy (part 2 of 2): HHHHHH
notes: also called VH-HcAb B11; 6HIS-Fc-sdAb; not shown: CH2 and CH3 domains of a human IgG1
In the case of B1, the Kd [1] is reported as 1 nM.

B2: VH F4 (VHH)
VHH: EVQLVESGGGLVQPGGSLRLSCAASGFTFSSYYMNWVRQAPGKGLEWVSSIYNGDGDTDYSDSVKGRFTISRDNAKNTVYLEMSDLKVQDTAIYYCNAYDGTLLRDYWGQGTQVTVSS
modifications: labeled with the acceptor fluorescent probe d2 (site not stated)
notes: Made in E. coli; also called anti-Galphai VH antibody-d2
B2 showed a Kd [2] of 83 nM and a Kd [3] of 31 nM.

B3: VH F2 (VHH)
VHH: EVQLVESGGGLVQPGGSLRLSCAASGFTFSSYAMSWVRQAAGKGPEWVASISSRGITTDYAHSVKGRFTVSRDNTKNTLYLQMNSLKPEDTALYYCVKGWMPTGWGQGTQVTVSS
modifications: labeled with the acceptor fluorescent probe d2 (site not stated)
notes: as for B2
For B3, the Kd [4] was 14 nM and the Kd [5] was 1 nM.

B4: HcAb-G7 (Fc fusion)
heavy (part 1 of 2): QVQLQESGGGLVQPGGSLRLSCAASGFTFSWYGMSWVRQAPGKGPEWVASISSRGITTDYAHSVKGRFTVSRDNTKNTLYLQMNSLKPEDTGVYYCTRVLWYDSGAYSLNDFWGQGTQVTVSSAAAEQKLISEEDLNGAAHHHHHHGS
heavy (part 2 of 2): HHHHHH
notes: VH-type heavy-chain antibody: VH fused to CH2 and CH3 of human IgG1, then a 6-histidine tag; made in HEK293; Detected in the assay through an anti-6HIS antibody labeled with d2; also called VH-HcAb G7; 6HIS-Fc-sdAb; not shown: CH2 and CH3 domains of a human IgG1
B4 showed a Kd [6] of 5 nM.

B5: VH A10 (VHH)
VHH: EVQLVESGGGLVQPGGSLRLSCAASGLTYSDYAMSWVRQAAGKGPEWVASISSRGITTDYAHSVKGRFTVSRDNTKNTLYLQMNSLEPEDTAVYYCTTVSYWRYEYWGQGTQVTVSS
modifications: labeled with the acceptor fluorescent probe d2 (site not stated)
notes: as for B2
In the case of B5, the Kd [4] is reported as 15 nM and the Kd [5] is reported as 1 nM.

B6: VH E2 (VHH)
VHH: EVQLVESGGGLVQPGGSLRLSCIGSGYTFSSYAMAWVRQASGKGPEWVASISSRGITTDYAHSVKGRFTISRDNAKNTLYLHMNNLKPEDTALYYCTRVLWYENGLYSLNDFWGQGTQVTVSS
modifications: labeled with the acceptor fluorescent probe d2 (site not stated)
notes: as for B2
In the case of B6, the Kd [4] is reported as 72 nM and the Kd [5] is reported as 2 nM.

B7: VH G7 (VHH)
VHH: QVQLQESGGGLVQPGGSLRLSCAASGFTFSWYGMSWVRQAPGKGPEWVASISSRGITTDYAHSVKGRFTVSRDNTKNTLYLQMNSLKPEDTGVYYCTRVLWYDSGAYSLNDFWGQGTQVTVSS
modifications: labeled with the acceptor fluorescent probe d2 (site not stated)
notes: as for B2
In the case of B7, the Kd [4] is reported as 31 nM and the Kd [5] is reported as 5 nM.

B8: HcAb-F9 (Fc fusion)
heavy (part 1 of 2): EVQLVESGGGLVQPGGSLRLSCAASGFTFDDYAMNWVRQAAGKGPEWVASISSRGITTDYAHSVKGRFTVSRDNTKNTLYLQMNSLKPDDAAVYYCATDPSTWYRGTAHWGQGTQVTVSSAAAEQKLISEEDLNGAAHHHHHHGS
heavy (part 2 of 2): HHHHHH
notes: also called VH-HcAb F9; 6HIS-Fc-sdAb; not shown: CH2 and CH3 domains of a human IgG1
Binder B8 has a Kd [1] of 3 nM.

B9: VH B11 (VHH)
VHH: EVQLVESGGGLVQPGGSLRLSCAASGFTFNDYWMYWVRQAPGKGLEWVSSINTGGSSTYYSDSVKGRFTTARDNAKNSLYLQLNSLRPEDTAVYYCAKEGPVGPPDYWGQGTQVTVSS
modifications: labeled with the acceptor fluorescent probe d2 (site not stated)
notes: as for B2
B9 showed a Kd [2] of 17 nM and a Kd [3] of 1 nM.

B10: VH F9 (VHH)
VHH: EVQLVESGGGLVQPGGSLRLSCAASGFTFDDYAMNWVRQAAGKGPEWVASISSRGITTDYAHSVKGRFTVSRDNTKNTLYLQMNSLKPDDAAVYYCATDPSTWYRGTAHWGQGTQVTVSS
modifications: labeled with the acceptor fluorescent probe d2 (site not stated)
notes: as for B2
Binder B10 has a Kd [3] of 32 nM.

B11: VH G6 (VHH)
VHH: B10 VHH with G10D, D30S, D31T, A33R, A41P, P45L, S63P
modifications: labeled with the acceptor fluorescent probe d2 (site not stated)
notes: as for B2
With B11 the Kd [3] was 95 nM.
